Experimental data taken from patent publication US12122830 (ABL BIO, dated 2024).

Experiments:
[1] = target: T1, recombinant mouse ROR1 protein (Acrobiosystems, RO1-M5221) (mouse, UniProt Q9Z139 30-406); assay: ELISA, recombinant mouse ROR1 protein coated at 1 µg/ml, IgG titrated, HRP anti-Fab detection
T1 construct: extracellular domain; Bought; also called mouse ROR1 antigen
Experimental: The anti-ROR1 antibody-antigen binding affinity was estimated by using an ELISA-based solution binding test. Specifically, a 96-well microtiter plate (Nunc-Immuno Plates, NUNC) was coated with the ROR1 protein at a concentration of 1 µg/ml in a PBS solution as described below at 4° C. for 16 hours, and non-specific binding sites were blocked with 3% BSA (bovine serum albumin) for 2 hours. For this, as the ROR1 protein, in case of human ROR1, ROR1-Fc of Example 1 or recombinant ROR1-His (Sino Biological, 13968-H08H) was used. The ROR1-His used for ELISA was a protein of sino biological company (13968-H08H) as described in the above sentence, and ROR1-His of Example 1 or recombinant mouse ROR1 protein was used (Acrobiosystems, RO1-M5221-100 µg).
Then, after adding the anti-ROR1 antibody prepared in Example 3 at the concentration described in FIG. 2 into the microtiter plate on a 96-well microtiter plate, the binding capacity was analyzed with ELISA as follows. Specifically, after constant temperature treatment for 2 hours, the plate was washed with PBS comprising 0.05% tween 20 5 times, and then a HRP-conjugated Fab multiclonal antibody reagent (Pierce, 31414) was diluted at 1:10,000 ratio, and was put into the washed microtiter plate, and it was incubated at 37° C. for 1 hour, and the ROR1 antibody bound to the plate was detected. After reaction, it was color-developed by using TMB (Tetramethylbenzidine, Sigma, T0440). The enzymatic reaction was stopped by 0.5 mol/L of sulfuric acid, and the absorbances at 450 nm and 650 nm were measured by using a micro plate reader device (molecular device) (450 nm-650 nm).

[2] = target: T2, mouse ROR1 expressed on the cell surface (CHO-mouse ROR1) (mouse, UniProt Q9Z139 30-937); assay: flow cytometry on CHO cells transiently overexpressing mouse ROR1, FITC anti-human Fc detection, MFI ratio to 2nd Ab
T2 construct: whole, on cells; Temporarily transfected CHO cells
Experimental: For this experiment, the degree of binding of the anti-ROR1 antibody and ROR1 was measured by using FACSCalibur (BD Biosciences) device with the cell lines as follows, the cell lines artificially overexpressing the ROR1 protein by transfecting an ROR1 gene temporarily (CHO-human ROR1, CHO-human ROR2, CHO-mouse ROR1) or stably (MC38-human ROR1) (FIG. 5 and FIG. 7, respectively) or the cell lines expressing ROR1 (JeKo-1, Mino) (FIG. 6) or a cell line not expressing ROR1 (MCF7) (FIG. 6). […] JeKo-1, Mino, CHO-human ROR1, CHO-mouse ROR1 and MC38-human ROR1 are all cell lines expressing human ROR1 or mouse ROR1.
Specifically, after disassociating each cell line and washing in PBS, the number of cells was counted and set as 2×10^5 cells/200 µl PBS, and then each ROR1 monoclonal antibody in Example 3 was prepared in 10 µg/mL or as 5 fold-diluted from 10 µg/mL, and was reacted at 4° C. for 1 hour. After reaction, cells were washed in PBS and then the FITC-labeled constant region (Fc)-specific antibody (Goat anti-human IgG FITC conjugate, Fc specific, Sigma, F9512, concentration: 2.0 mg/ml) was suspended in 2 µl/1×10^5 cells/200 µl PBS, and it was reacted at 4° C. for 1 hours. The confirmation of expression degree of human ROR1, human ROR2 and mouse ROR1 that were temporarily overexpressed was analyzed by using a commercially available antibody for FACS analysis (anti-ROR1: R&D Systems, FAB2000G, anti-ROR2: R&D, FAB20641P). After reaction, cells were washed in PBS and decoded by using a FACSCalibur device. The negative control group (2nd Ab) was treated only with the FITC-labeled constant region (Fc)-specific antibody. The result for the peak shift in the experimental group treated with each ROR1 monoclonal antibody was compared to the result for the shift in the control group (Mean Fluorescence Intensity Ratio, MFI Ratio: MFI of anti-ROR1/MFI of 2nd Ab).

T1 sequence (Q9Z139 30-406): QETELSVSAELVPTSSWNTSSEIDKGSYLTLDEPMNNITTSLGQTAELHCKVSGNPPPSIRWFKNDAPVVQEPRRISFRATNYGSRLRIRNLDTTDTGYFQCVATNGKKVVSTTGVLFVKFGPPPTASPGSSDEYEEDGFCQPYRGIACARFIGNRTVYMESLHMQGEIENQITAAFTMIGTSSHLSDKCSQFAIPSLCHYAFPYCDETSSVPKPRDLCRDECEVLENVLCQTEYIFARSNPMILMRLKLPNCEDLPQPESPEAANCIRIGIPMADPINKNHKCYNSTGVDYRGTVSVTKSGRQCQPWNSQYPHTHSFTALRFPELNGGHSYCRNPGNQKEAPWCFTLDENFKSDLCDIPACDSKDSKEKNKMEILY
T2 sequence (Q9Z139 30-937): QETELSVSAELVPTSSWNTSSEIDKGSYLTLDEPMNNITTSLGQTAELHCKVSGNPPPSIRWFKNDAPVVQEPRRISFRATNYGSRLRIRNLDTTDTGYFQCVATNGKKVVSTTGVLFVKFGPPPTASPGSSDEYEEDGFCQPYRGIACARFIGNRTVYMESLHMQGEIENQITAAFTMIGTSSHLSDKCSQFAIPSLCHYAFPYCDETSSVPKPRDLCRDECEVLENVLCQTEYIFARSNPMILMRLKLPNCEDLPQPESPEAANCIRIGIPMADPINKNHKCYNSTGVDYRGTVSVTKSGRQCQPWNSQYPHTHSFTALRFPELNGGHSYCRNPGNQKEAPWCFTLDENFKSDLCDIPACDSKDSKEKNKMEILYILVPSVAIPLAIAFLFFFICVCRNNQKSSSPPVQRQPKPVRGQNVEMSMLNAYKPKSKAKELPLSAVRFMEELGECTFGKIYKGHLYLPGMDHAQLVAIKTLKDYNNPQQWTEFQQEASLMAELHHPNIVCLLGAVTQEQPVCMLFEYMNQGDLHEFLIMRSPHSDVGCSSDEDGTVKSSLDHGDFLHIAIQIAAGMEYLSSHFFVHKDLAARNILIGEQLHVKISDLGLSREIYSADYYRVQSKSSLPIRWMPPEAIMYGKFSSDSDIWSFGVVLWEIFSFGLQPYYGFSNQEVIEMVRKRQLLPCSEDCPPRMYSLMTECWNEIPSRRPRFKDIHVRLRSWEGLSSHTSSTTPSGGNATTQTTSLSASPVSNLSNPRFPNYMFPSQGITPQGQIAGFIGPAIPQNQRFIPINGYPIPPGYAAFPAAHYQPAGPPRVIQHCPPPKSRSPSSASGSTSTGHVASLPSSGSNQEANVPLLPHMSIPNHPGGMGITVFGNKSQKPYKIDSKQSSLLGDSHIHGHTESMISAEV

binding result [1] | binding result [2] | Binder
binds | binds | A2F2 anti-ROR1 IgG antibody (antibody, V domains shown) VH: EVQLLESGGGLVQPGGSLRLSCAASGFTFSDYYMSWVRQAPGKGLEWVSSISPDGSNTYYADSVKGRFTISRDNSKNTLYLQMNSLRAEDTAVYYCAKNLRAFDYWGQGTLVTVSS VL: QSVLTQPPPASGTPGQRVTISCSGSSSNIGSNTVYWYQQLPGTAPKLLIYANSQRPSGVPDRFSGSKSGTSASLAISGLRSEDEADYYCGSWDYSLSGYVFGGGTKLTVLG
binds | binds | D2B12 anti-ROR1 IgG antibody (antibody, V domains shown) VH: EVQLLESGGGLVQPGGSLRLSCAASGFTFSNYDMSWVRQAPGKGLEWVSSISPSSGSSIYYADSVKGRFTISRDNSKNTLYLQMNSLRAEDTAVYYCAKAPGWCQAPSCYYDNAMDVWGQGTLVTVSS VL: QSVLTQPPSASGTPGQRVTISCSGSSSNIGNNDVSWYQQLPGTAPKLLIYDDSQRPSGVPDRFSGSKSGTSASLAISGLRSEDEADYYCGAWDDSLSGYVFGGGTKLTVLG
binds | binds | A2F3 anti-ROR1 IgG antibody (antibody, V domains shown) VH: EVQLLESGGGLVQPGGSLRLSCAASGFTFSSYDMSWVRQAPGKGLEWVSWISPGGGSKYYADSVKGRFTISRDNSKNTLYLQMNSLRAEDTAVYYCARVNGRFDYWGQGTLVTVSS VL: QSVLTQPPSASGTPGQRVTISCSGSSSNIGNNNVSWYQQLPGTAPKLLIYADSHRPSGVPDRFSGSKSGTSASLAISGLRSEDEADYYCATWDYSLSGYVFGGGTKLTVLG
